From patent US20250361311A1 (published 2025)

T1: human scTL1A (human, UniProt O95150 72-251, biotinylated (captured with the Biotin CAPture kit); site not stated)
T1 chain: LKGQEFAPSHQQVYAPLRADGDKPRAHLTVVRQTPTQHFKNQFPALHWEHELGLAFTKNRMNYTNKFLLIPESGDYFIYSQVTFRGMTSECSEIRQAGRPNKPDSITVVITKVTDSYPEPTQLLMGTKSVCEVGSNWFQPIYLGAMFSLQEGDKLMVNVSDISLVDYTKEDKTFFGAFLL

T2: recombinant TL1A (UniProt O95150 72-251)
T2 chain: T1 chain

B1: scTL1A (ligand)
chain: T1 chain
modifications: biotinylated (captured with the Biotin CAPture kit); site not stated
B2: 70416_041[TL1A]H1L1 Fab (Fab, V domains shown)
VH: QVQLVQSGAEVKKPGASVKVSCKVSGFSVTSYNVHWVRQAPGQGLEWMGVMWSGGNTDYNSKFQGRVTMTRDTSTNTVYMELSSLRSEDTAVYYCARAGRYYHDSNYYWDFPYWGQGTLVTVSS
VL: DIQMTQSPSSVSASVGDRVTITCRASEDIYSGLAWYQQKPGKSPKLLIYGASSLQDGVPSRFSGSGSGTDYTLTISSLQPEDFATYFCQEGLKSPYTFGAGTKLEIK

Assays:
[1] = biological target: 70392_069[TL1A]H1L1; assay: SPR; monovalent Fab
[2] = biological target: 70417_111[TL1A]H1L1; assay: SPR; monovalent Fab
[3] = biological target: Comparator 2; assay: SPR; monovalent Fab
[4] = biological target: 70416_073[TL1A]H1L1; assay: SPR; monovalent Fab
[5] = biological target: 70392_189[TL1A]H1L1; assay: SPR; monovalent Fab
[6] = biological target: 70416_092[TL1A]H1L1; assay: SPR; monovalent Fab
[7] = biological target: 70392_201[TL1A]H1L1; assay: SPR; monovalent Fab
[8] = biological target: 70392_074[TL1A]H1L1; assay: SPR; monovalent Fab
[9] = biological target: T1, human scTL1A; assay: SPR; monovalent Fab
[10] = biological target: T2, recombinant TL1A; assay: SPR; run in different experiment under similar conditions

| Binder | Kd [1] | Kd [2] | Kd [3] | Kd [4] | Kd [5] | Kd [6] | Kd [7] | Kd [8] | Kd [9] | Kd [10] |
| --- | --- | --- | --- | --- | --- | --- | --- | --- | --- | --- |
| B1 | 1.69 nM | 6.84 nM | 0.0708 nM | 6.61 nM | 0.895 nM | 3.12 nM | 0.128 nM | 6.11 nM |  |  |
| B2 |  |  |  |  |  |  |  |  | 0.104 nM | 0.104 nM |
